We go through 3 molecules from paper PMC12586476, “Molecular mechanism and structural models of protein-mediated copper transfer to the Arabidopsis thaliana ethylene receptor ETR1 at the ER membrane” (Scientific Reports, 2025).

B1: RAN1 degenerate metal binding domain 3 (MBD3) (domain or fragment, Arabidopsis thaliana, UniProt Q9S7J8 205-283, looked up)
chain: QQDKLVLRVDGILNELDAQVLEGILTRLNGVRQFRLDRISGELEVVFDPEVVSSRSLVDGIEEDGFGKFKLRVMSPYER
notes: Copper-transporting P-type ATPase RAN1 (HMA7), Arabidopsis thaliana, MBD3, AA 205-283; Cloned into pETEV16b; also called HMA7 MBD3; source: E. coli BL21 Gold (DE3), purified (Ni-NTA IMAC, SEC); not shown: His tag (deca-histidine), N-terminal, kept
B2: RAN1 metal binding domain 1 (MBD1) (domain or fragment, Arabidopsis thaliana, UniProt Q9S7J8 55-130, looked up)
chain: LRKIQVGVTGMTCAACSNSVEAALMNVNGVFKASVALLQNRADVVFDPNLVKEEDIKEAIEDAGFEAEILAEEQTQ
notes: Copper-transporting P-type ATPase RAN1 (HMA7), Arabidopsis thaliana, MBD1, AA 55-130; Cloned into pETEV16b (pET-16b derivative with a TEV site); no tag cleavage is described; also called HMA7 MBD1; source: E. coli BL21 Gold (DE3), purified (Ni-NTA IMAC, SEC)
B3: RAN1 metal binding domain 2 (MBD2) (domain or fragment, Arabidopsis thaliana, UniProt Q9S7J8 132-207, looked up)
chain: TLVGQFTIGGMTCAACVNSVEGILRDLPGVKRAVVALSTSLGEVEYDPNVINKDDIVNAIEDAGFEGSLVQSNQQD
notes: Copper-transporting P-type ATPase RAN1 (HMA7), Arabidopsis thaliana, MBD2, AA 132-207; Cloned into pETEV16b (pET-16b derivative with a TEV site); no tag cleavage is described; also called HMA7 MBD2; source: E. coli BL21 Gold (DE3), purified (Ni-NTA IMAC, SEC)

One experiment has as its target T1, ETR1_GAF^1–316 (truncation of the Arabidopsis thaliana ethylene receptor ETR1 containing the transmembrane … (Arabidopsis thaliana, UniProt P49333 1-316, AlexaFluor 488-NHS (amine-reactive dye) label)).
T1 construct: Membrane protein kept in Fos-Choline-14; source: E. coli C41(DE3)∆ompF∆acrAB, membranes solubilized in Fos-Choline-14, purified (Ni-NTA IMAC)
T1 sequence (looked up): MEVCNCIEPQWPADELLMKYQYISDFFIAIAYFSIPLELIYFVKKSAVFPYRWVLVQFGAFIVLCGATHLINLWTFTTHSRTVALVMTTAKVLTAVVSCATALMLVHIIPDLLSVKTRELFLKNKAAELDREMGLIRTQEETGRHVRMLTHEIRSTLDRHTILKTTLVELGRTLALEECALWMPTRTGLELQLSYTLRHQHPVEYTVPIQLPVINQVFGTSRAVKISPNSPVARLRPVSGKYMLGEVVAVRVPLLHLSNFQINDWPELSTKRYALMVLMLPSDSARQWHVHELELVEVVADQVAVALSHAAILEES
Briefly: MST; AlexaFluor488-labelled ETR1_GAF 50 nM, MBDs titrated 100 µM to 24.4 nM; 300 mM NaCl, 50 mM HEPES pH 7.2 with Fos-Choline-14 and glycerol; room temperature; thermophoresis with T-jump; one-site binding model; apparent KD. The following applies: both partners purified.
On to B1, for which the Kd is 8.3 ± 6.6 µM.
As to B2, the Kd is 13.3 ± 4.4 µM.
Regarding B3, the Kd was determined as 22.3 ± 12.1 µM.

In another experiment the target is T2, Arabidopsis copper chaperone CCH (Arabidopsis thaliana, UniProt O82089 1-121, AlexaFluor 488 label).
T2 construct: Copper chaperone CCH, Arabidopsis thaliana
T2 sequence (looked up): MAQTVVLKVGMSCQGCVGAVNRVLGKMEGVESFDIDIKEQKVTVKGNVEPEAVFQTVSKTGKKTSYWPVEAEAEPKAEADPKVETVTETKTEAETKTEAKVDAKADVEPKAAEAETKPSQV
Briefly: MST; AlexaFluor488-labelled ATX1 or CCH 100 nM, MBDs titrated (MBD1 300 µM to 0.19 nM, MBD2 100 µM to 0.19 nM, MBD3 100 µM to 0.06 nM); 300 mM NaCl, 50 mM HEPES pH 7.2 with Tween20 and glycerol; room temperature; initial fluorescence analysed; one-site binding model; apparent KD. The following applies: both partners purified.
Take B1: the Kd came to 88.5 ± 78.2 nM.
In the case of B2, the Kd was 3160 ± 684 nM.
As to B3, the Kd was 2280 ± 990 nM.

For a further experiment, the target named is Arabidopsis copper transport protein ATX1 (Arabidopsis thaliana). The experiment is described as above.
Settings: not given
In the case of B1, the Kd was determined as 105 nM.
As for B2, the Kd is 155 nM.
Consider B3, for which the Kd was found to be 239 nM.
